From patent US20050221426A1
One block for each molecule: values may come before it.

Tests used:
Assay in all cases: cell-based or functional assay
GLP1R = GLP1R (UniProt P43220)
[1] = target: Vasoactive Intestinal Peptide 1 receptor (UniProt P32241)
Melanocortin 5 receptor = Melanocortin 5 receptor (UniProt P33032)
Melanocortin 1 receptor = Melanocortin 1 receptor (UniProt Q01726)
CRHR1 = CRHR1 (UniProt P34998)
Chain of CRHR1 (P34998 24-415 limits assumed): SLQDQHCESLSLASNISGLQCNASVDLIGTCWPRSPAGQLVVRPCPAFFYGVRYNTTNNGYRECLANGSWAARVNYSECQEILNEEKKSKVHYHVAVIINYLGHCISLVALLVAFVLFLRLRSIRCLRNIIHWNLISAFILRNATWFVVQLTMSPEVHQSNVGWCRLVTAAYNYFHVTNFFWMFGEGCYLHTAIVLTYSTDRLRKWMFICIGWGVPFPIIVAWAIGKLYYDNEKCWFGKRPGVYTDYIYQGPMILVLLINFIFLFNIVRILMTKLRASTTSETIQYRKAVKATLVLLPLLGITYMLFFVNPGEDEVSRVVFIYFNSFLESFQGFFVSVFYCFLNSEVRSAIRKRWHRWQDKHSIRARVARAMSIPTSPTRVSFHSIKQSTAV

Chain of Vasoactive Intestinal Peptide 1 receptor (P32241 31-457): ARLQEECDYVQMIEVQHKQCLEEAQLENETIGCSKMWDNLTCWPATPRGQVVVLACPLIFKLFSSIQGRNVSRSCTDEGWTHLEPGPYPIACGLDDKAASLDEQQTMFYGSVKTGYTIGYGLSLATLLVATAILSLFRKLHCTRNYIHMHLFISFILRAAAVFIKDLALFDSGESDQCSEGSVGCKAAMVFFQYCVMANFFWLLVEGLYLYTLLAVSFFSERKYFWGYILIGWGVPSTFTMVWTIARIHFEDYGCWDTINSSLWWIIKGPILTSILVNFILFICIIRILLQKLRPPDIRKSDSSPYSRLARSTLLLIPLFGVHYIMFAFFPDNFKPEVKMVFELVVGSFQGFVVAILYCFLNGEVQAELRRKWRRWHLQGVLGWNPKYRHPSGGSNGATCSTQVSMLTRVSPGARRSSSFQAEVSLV
Chain of Melanocortin 5 receptor (P33032 whole entry): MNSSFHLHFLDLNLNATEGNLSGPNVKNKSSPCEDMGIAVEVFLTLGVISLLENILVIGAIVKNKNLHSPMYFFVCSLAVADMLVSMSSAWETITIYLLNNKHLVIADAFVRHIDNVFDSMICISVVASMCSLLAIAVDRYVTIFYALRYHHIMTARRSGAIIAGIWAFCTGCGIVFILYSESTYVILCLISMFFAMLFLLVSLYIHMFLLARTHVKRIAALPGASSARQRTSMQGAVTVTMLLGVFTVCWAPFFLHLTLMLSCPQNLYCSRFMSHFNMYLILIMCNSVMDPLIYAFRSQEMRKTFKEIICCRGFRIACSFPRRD
Chain of Melanocortin 1 receptor (Q01726 whole entry): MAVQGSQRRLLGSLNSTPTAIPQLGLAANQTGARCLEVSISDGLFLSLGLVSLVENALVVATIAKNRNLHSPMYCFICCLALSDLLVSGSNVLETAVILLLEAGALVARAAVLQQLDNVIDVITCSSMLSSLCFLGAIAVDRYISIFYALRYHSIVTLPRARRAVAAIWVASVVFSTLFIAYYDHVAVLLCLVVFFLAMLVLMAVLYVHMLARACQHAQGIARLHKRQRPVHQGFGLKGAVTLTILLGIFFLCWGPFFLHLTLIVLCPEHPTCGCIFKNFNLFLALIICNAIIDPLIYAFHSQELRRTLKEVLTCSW
Chain of GLP1R (P43220 24-463 limits assumed): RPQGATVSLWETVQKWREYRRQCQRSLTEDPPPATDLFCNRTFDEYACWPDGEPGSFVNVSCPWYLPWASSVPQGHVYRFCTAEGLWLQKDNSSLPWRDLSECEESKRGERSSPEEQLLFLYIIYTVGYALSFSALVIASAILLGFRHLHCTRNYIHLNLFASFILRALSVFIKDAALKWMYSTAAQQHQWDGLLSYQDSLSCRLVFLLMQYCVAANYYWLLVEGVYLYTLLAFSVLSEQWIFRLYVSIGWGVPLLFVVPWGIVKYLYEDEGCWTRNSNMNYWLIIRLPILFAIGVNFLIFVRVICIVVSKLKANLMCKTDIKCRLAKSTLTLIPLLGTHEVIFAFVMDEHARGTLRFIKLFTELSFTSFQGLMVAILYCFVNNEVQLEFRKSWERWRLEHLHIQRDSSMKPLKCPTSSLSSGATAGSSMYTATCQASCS

Molecule: GLP (peptide)
EC50 of cell response (CNG channel voltage dye assay; NY & H30602) (GLP1R): 3 pM

Molecule: [Nle4-D-Phe7]α-MSH (from UniProt P01189 138-150) (peptide)
EC50 of cell response (CNG channel voltage dye assay; MDC dye) (Melanocortin 5 receptor): 2.9 pM | EC50 of cell response (CNG channel voltage dye assay; NR & H30602) (Melanocortin 5 receptor): 1.3 pM | EC50 of cell response (CNG channel voltage dye assay; NY & H30602) (Melanocortin 5 receptor): 950000 pM | Fmax/Fb maximal response (CNG channel voltage dye assay; MDC dye) (Melanocortin 5 receptor): 3.6 | Fmax/Fb maximal response (CNG channel voltage dye assay; NR & H30602) (Melanocortin 5 receptor): 3.2 | Fmax/Fb maximal response (CNG channel voltage dye assay; NY & H30602) (Melanocortin 5 receptor): 3.4

Molecule: α-MSH (from UniProt P01189 138-150) (peptide)
EC50 of cell response (CNG channel voltage dye assay; MDC dye) (Melanocortin 1 receptor): 820000 pM | EC50 of cell response (CNG channel voltage dye assay; TB & H30602) (Melanocortin 1 receptor): 770000 pM | Fmax/Fb maximal response (CNG channel voltage dye assay; MDC dye) (Melanocortin 1 receptor): 5 | Fmax/Fb maximal response (CNG channel voltage dye assay; TB & H30602) (Melanocortin 1 receptor): 5.1

Other lines, results leading:

EC50 of cell response (CNG channel voltage dye assay; MDC dye) [1]: 2.4 pM | EC50 of cell response (CNG channel voltage dye assay; TB & H30602) [1]: 5 pM | Fmax/Fb maximal response (CNG channel voltage dye assay; MDC dye) [1]: 4.9 | Fmax/Fb maximal response (CNG channel voltage dye assay; TB & H30602) [1]: 5
Molecule: VIP (from UniProt P01282 125-152) (peptide)

EC50 of cell response (CNG channel voltage dye assay; MDC dye) (CRHR1): 28 pM | EC50 of cell response (CNG channel voltage dye assay; NY & H30602) (CRHR1): 28 pM | Fmax/Fb maximal response (CNG channel voltage dye assay; MDC dye) (CRHR1): 4.2 | Fmax/Fb maximal response (CNG channel voltage dye assay; NY & H30602) (CRHR1): 4.3
B1: CRF (peptide, UniProt P06850 154-194, looked up)
peptide: SEEPPISLDLTFHLLREVLEMARAEQLAQQAHSNRKLMEII
